From patent US20250090876A1 (published 2025) come the findings set out here.

One may read the Kd as the constant that tells how readily two partners part at equilibrium.

For the experiment, the target named is antigen target. The experiment is described as follows: BLI. A general note: BLI is a label-free optical method that tracks binding on a fibre tip over time.

B1: ESS0102 5A (antibody, V domains shown)
VH: EVQLLESGGGLVQPGGSLRLSCAASGFSFSSYEMNWVRQAPGKGPEWISYISSGGGTIYYADSVRGRFTISRDNSNNTLYLQMNSLRPDDTAIYYCARDRGRKWLQLLFDSWGQGTLVTVSS
VL: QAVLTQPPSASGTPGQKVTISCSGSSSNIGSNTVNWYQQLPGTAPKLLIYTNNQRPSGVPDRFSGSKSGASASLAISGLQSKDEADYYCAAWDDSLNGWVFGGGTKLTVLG
B1 showed a Kd of 11.6 nM. That is a double-digit nanomolar value.
